Article PMC6779512 (Proteins, 2019)

Molecular target: the molecule itself
Assay: SEC

B1: Spa47 E267A (enzyme)
chain: MSYTKLLTQLSFPNRISGPILETSLSDVSIGEICNIQAGIESNEIVARAQVVGFHDEKTILSLIGNSRGLSRQTLIKPTAQFLHTQVGRGLLGAVVNPLGEVTDKFAVTDNSEILYRPVDNAPPLYSERAAIEKPFLTGIKVIDSLLTCGEGQRMGIFASAGCGKTFLMNMLIEHSGADIYVIGLIGERGREVTETVDYLKNSEKKSRCVLVYATSDYSSVDRCNAAYIATAIAEFFRTEGHKVALFIDSLTRYARALRDVALAAGASPARRGYPVSVFDSLPRLLERPGKLKAGGSITAFYTVLLEDDDFADPLAEEVRSILDGHIYLSRNLAQKGQFPAIDSLKSISRVFTQVVDEKHRIMAAAFRELLSEIEELRTIIDFGEYKPGENASQDKIYNKISVVESFLKQDYRLGFTYEQTMELIGETIR
  binding result: binds

B2: Spa47 E267R (enzyme)
chain: MSYTKLLTQLSFPNRISGPILETSLSDVSIGEICNIQAGIESNEIVARAQVVGFHDEKTILSLIGNSRGLSRQTLIKPTAQFLHTQVGRGLLGAVVNPLGEVTDKFAVTDNSEILYRPVDNAPPLYSERAAIEKPFLTGIKVIDSLLTCGEGQRMGIFASAGCGKTFLMNMLIEHSGADIYVIGLIGERGREVTETVDYLKNSEKKSRCVLVYATSDYSSVDRCNAAYIATAIAEFFRTEGHKVALFIDSLTRYARALRDVALAAGRSPARRGYPVSVFDSLPRLLERPGKLKAGGSITAFYTVLLEDDDFADPLAEEVRSILDGHIYLSRNLAQKGQFPAIDSLKSISRVFTQVVDEKHRIMAAAFRELLSEIEELRTIIDFGEYKPGENASQDKIYNKISVVESFLKQDYRLGFTYEQTMELIGETIR
  binding result: binds
